Columns and labels:
[1] = molecular target: T1, Monomeric sAXL, the soluble extracellular domain of AXL (human, UniProt P30530); assay: SEC-SAXS; SWING beamline (SOLEIL), HPLC mode; BioSEC-3 300 or BioSEC-5 1000 column in PBS or 10 mM histidine, 150 mM NaCl, pH 6; proteins alone and mixed, in solution; details: both partners purified
T1 construct: AXL receptor tyrosine kinase, human, soluble extracellular domain released from AXL-Fc by papain; also called monomeric AXL extracellular domain; source: papain digestion of AXL-Fc (Evitria), followed by protein A purification; not shown: Fc, C-terminal, cleaved

[2] = molecular target: T2, Human AXL-Fc containing the entire extracellular domain of human AXL (Homo sapiens, UniProt P30530); assay: as above; details: both partners purified
T2 construct: AXL receptor tyrosine kinase, human, entire extracellular domain (two Ig-like and two fibronectin type III domains); Dimer through the C-terminal Fc; also called dimeric AXL-Fc; source: bought: Evitria (Switzerland); not shown: Fc, C-terminal, kept
T2 sequence (P30530 26-451): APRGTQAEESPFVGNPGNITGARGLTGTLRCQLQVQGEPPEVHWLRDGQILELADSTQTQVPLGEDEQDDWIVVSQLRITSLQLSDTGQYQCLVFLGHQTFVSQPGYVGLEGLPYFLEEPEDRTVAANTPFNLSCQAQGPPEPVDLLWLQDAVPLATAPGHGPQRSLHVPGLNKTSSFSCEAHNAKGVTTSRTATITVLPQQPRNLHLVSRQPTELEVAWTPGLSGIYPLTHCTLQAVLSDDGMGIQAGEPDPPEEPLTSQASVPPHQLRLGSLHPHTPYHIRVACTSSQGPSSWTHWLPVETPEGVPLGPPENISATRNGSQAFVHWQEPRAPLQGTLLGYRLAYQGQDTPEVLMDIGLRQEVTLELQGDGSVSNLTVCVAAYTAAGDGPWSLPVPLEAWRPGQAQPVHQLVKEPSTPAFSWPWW

T1 sequence (P30530 26-451): as above

- stoichiometry N [1]: 1 Fab per sAXL (1:1)
- stoichiometry N [2]: 1 Fab per AXL-Fc chain (2:2)
B1: Fab fragment of tilvestamab (Fab, V domains shown)
VH: EVQLVESGGGLVQPGGSLRLSCAASGYSFTDFYINWVRQAPGKGLEWVARIFPGGDNTYYNEKFKGRFTLSADTSKSTAYLQMNSLRAEDTAVYYCARRGLYYAMDYWGQGTLVTVSS
VL: DIQMTQSPSSLSASVGDRVTITCRSSQSLVHSNGIPYLHWYQQKPGKAPKLLIYRVSNRFSGVPSRFSGSGSGTDFTLTISSLQPEDFATYYCSQGTHVPPTFGQGTKVEIK
notes: heavy chain (HC) of the Fab; light chain (LC) of the Fab; also called tilvestamab Fab; source: papain proteolysis of tilvestamab (immobilized papain), MabSelect SuRe column

— paper PMC12809806, “Structural Analysis of Tilvestamab in Complex with AXL” (ACS Omega, 2025)
